Laboratory results as given in the DeepSol protein solubility set.

assay: soluble on expression in E. coli; label from the status in PepcDB or PDB records

| Sequence | soluble on expression in E. coli |
| --- | --- |
| SSAKAQVNPAICRYPLGMSGGQIPDEDITASSQWSESTAAKYGRLDSEEGDGAWCPEIPVEPDDLKEFLQIDLHTLHFITLVGTQGRHAGGHGIEFAPMYKINYSRDGTRWISWRNRHGKQVLDGNSNPYDIFLKDLEPPIVARFVRFIPVTDHSMNVCMRVELYGCVWLDGLVSYNAPAGQQFVLPGGSIIYLNDSVYDGAVGYSMTEGLGQLTDGVSGLDDFTQTHEYHVWPGYDYVGWRNESATNGYIEIMFEFDRIRNFTTMKVHCNNMFAKGVKIFKEVQCYFRSEASEWEPNAISFPLVLDDVNPSARFVTVPLHHRMASAIKCQYHFADTWMMFSEITFQSDAAM | not soluble |
| SSENLDKSNVNEAGKSKSNDSEEGLEDAVEGADEALQKAIKSDSSSPQRVQRPHSSPPRFVTVEELLETARGVTNMALAHEIVVNGDFQIKPVELPENSLKKRVKEIVHKAFWDCLSVQLSEDPPAYDHAIKLVGEIKETLLSFLLPGHTRLRNQITEVLDLDLIKQEAENGALDISRLAEFIIGMMGTLCAPARDEEVKKLKDIKEIVPLFREIFSVLDLMKVDMANFAISSIRPHLMQQSVEYERKKFQEILERQPNSLDFVTQWLEEASEDLMTQKYKHALPVGGMAAGSGDMPRLSPVAVQNYAYLKLLKWDHLQRPFPETVLMDQSRFHELQLQLEQLTILGAVLLVTFSMAAPGISSQADFAEKLKMIVKILLTDMHLPSFHLKDVLTTIGEKVCLEVSSCLSLCGSSPFTTDKETVLKGQIQAVASPDDPIRRIMESRILTFLETYLASGHQKPLPTVPGGLSPVQRELEEVAIKFARLVNYNKMVFCPYYDAILSKILVRS | soluble |
| SSKVEQLRAQLNERILVLDGGMGTMIQSYRLNEADFRGERFADWPCDLKGNNDLLVLSKPEVIAAIHNAYFEAGADIIETNTFNSTTIAMADYQMESLSAEINFAAAKLARACADEWTARTPEKPRYVAGVLGPTNRTASISPDVNDPAFRNITFDQLVAAYRESTKALVEGGADLILIETVFDTLNAKAAVFAVKTEFEALGVELPIMISGTITDASGRTLSGQTTEAFYNSLRHAEALTFGLNCALGPDELRQYVQELSRIAECYVTAHPNAGLPNAFGEYDLDADTMAKQIREWAEAGFLNIVGGCCGTTPQHIAAMSRAVEGLAPRKLPEIPVACRLSGLEPLNIGEDSLFVNVGERTNVTGSAKF | not soluble |
| SSLAISVANDDAGIFQPSLNALYGHPAADRGDYTAGLFLGYSHDLTDASQLSFHIAQDIYSPSGANKRKPEAVKGDRAFSAFLHTGLEWNSLATNWLRYRLGTDIGVIGPDAGGQEVQNRAHRIIGAEKYPAWQDQIENRYGYTAKGMVSLTPAIDILGVNVGFYPEVSAVGGNLFQYLGYGATVALGNDKTFNSDNGFGLLSRRGLIHTQKEGLIYKVFAGVERREVDKNYTLQGKTLQTKMETVDINKTVDEYRVGATIGYSPVAFSLSLNKVTSEFRTGDDYSYINGDITFFF | soluble |
| SSQVPDVMVVGEPTLMGGEFGDEDERLITRLENTQFDAANGIDDEGGSGGHMGSGGTPEIPMCAGCDQHILDRFILKALDRHWHSKCLKCSDCHVPLAERCFSRGESVYCKDDFFKRFGTKCAACQLGIPPTQVVRRAQDFVYHLHCFACVVCKRQLATGDEFYLMEDSRLVCKADYETAKQ | soluble |
| SSRHVFLTGPPGVGKTTLIQKAIEVLQSSGLPVDGFYTQEVRQEGKRIGFDVVTLSGAQGPLSRVGSQPLPGKPECRVGQYVVNLDSFEQLALPVLRNAGSSCGPKHRVCIIDEIGKMELFSQPFIQAVRQMLSTPGIIVVGTIPVPKGKPLALVEEIRKRRDVKVFNVTRDNRNSLLPDIVAVVQSSRT | soluble |
| SSSSSSVPAYLGDEDLTQETRALISSLPKEKGWLVSEIYEFQGLWHTQAILQGILICQKRFEAKDSDIILVTNPKSGTTWLKALVFALLNRHKFPVSSSGNHPLLVTNPHLLVPFLEGVYYESPDFDFSSLPSPRLMNTHISHLSLPESVKSSSCKIVYCCRNPKDMFVSLWHFGKKLAPEETADYPIEKAVEAFCEGKFIGGPFWDHILEYWYASRENPNKVLFVTYEELKKQTEVEMKRIAEFLECGFIEEEEVREIVKLCSFESLSNLEVNKEGKLPNGIETKTFFRKGEIGGWRDTLSESLAEEIDRTIEEKFKGSGLKFSS | soluble |
| SSTHVAGLGLDKMKLGNPQSFLDQEEADDQQLLEPEAWKTYTERRNALREFLTSDLSPHLLKRHHARMQLLRKCSYYIEVLPKHLALGDQNPLVLPSALFQLIDPWKFQRMKKVGTAQTKIQLLLLGDLLEQLDHGRAELDALLRSPDPRPFLADWALVERRLADVSAVMDSFLTMMVPGRLHVKHRLVSDVSATKIPHIWLMLSTKMPVVFDRKASAAHQDWARLRWFVTIQPATSEQYELRFRLLDPRTQQECAQCGVIPVAACTFDVRNLLPNRSYKFTIKRAETSTLVYEPWRDSLTLHTKPEPLEGPALSHSV | soluble |
| SSVDPMTYEAQFFGFTPQTCMLRIYIAFQDYLFEVMQAVEQVILKKLDGIPDCDISPVQIRKCTEKFLCFMKGHFDNLFSKMEQLFLQLILRIPSNILLPEDKCKETPYSEEDFQHLQKEIEQLQEKYKTELCTKQALLAELEEQKIVQAKLKQTLTFFDELHNVGRDHGTSDFRESLVSLVQNSRKLQNIRDNVEKESKRLKIS | soluble |
| SSWAIHYIGKSVEQLTGYSKMDFITRKLTWSDLICPEDIPALNKVVQKATKNRTPYQVEYRIKKADGSTVFIQEQAHPVNDDKGNLAYVDGVFLDV | not soluble |
| SSWWTHVEMGPPDPILGVTEAFKRDTNSKKMNLGVGAYRDDNGKPYVLPSVRKAEAQIAAKNLDKEYLPIGGLAEFCKASAELALGENNEVLKSGRFVTVQTISGTGALRVGASFLQRFFKFSRDVFLPKPSWGNHTPIFRDAGMQLQGYRYYDPKTCGFDFSGALEDISKIPEQSVLLLHACAHNPTGVDPRPEQWKEIASVVKKKNLFAFFDMAYQGFASGDGDKDAWAVRHFIEQGINVCLCQSYAKNMGLYGERVGAFTVVCKDAEEAKRVESQLKILIRPLYSNPPLNGARIAATILTSPDLRKQWLQEVKGMADRIISMRTQLVSNLKKEGSSHNWQHITDQIGMFCFTGLKPEQVERLTKEFSVYMTKDGRISVAGVTSGNVGYLAHAIHQVTK | soluble |
| STGKKPKHHVLSHDIIPASKPIAEKLQIQPESPVVELKRILYNDDQPLTFEVTHYPLDLFPGIDTFIADGVSMHDILKQQYKVVPTHNTKLLNVVYAQQEESKYLDCDIGDALFEIDKTAFTSNDQPIYCSLFLMHTNRVT | not soluble |
| STPSIVIASAARTAVGSFNGAFANTPAHELGATVISAVLERAGVAAGEVNEVILGQVLPAGEGQNPARQAAMKAGVPQEATAWGMNQLCGSGLRAVALGMQQIATGDASIIVAGGMESMSMAPHCAHLRGGVKMGDFKMIDTMIKDGLTDAFYGYHMGTTAENVAKQWQLSRDEQDAFAVASQNKAEAAQKDGRFKDEIVPFIVKGRKGDITVDADEYIRHGATLDSMAKLRPAFDKEGTVTAGNASGLNDGAAAALLMSEAEASRRGIQPLGRIVSWATVGVDPKVMGTGPIPASRKALERAGWKIGDLDLVEAAEAFAAQACAVNKDLGWDPSIVNVNGGAIAIGHPIGASGARILNTLLFEMKRRGARKGLATLCIGGGMGVAMCIESL | soluble |
| STVELCGQWDTRTVAGGRYTVSNNVWGAETAQCIEVGLETGNFTITRAEHDNGNNVAAYPNIQFAIPQPRRVQELSDVRTSWTLTPITTGRWNAAYDIFFAANPNHVTYSGDAELMIWLNKNGDVMPIGSRVATVELAGATWEVWYADNGAMNVISYVRTTPTTSVTELDLKAFIDDAVARGYIRPEWYLLSVQTGFELFTGGAGLRSADFSVTVQ | soluble |
| STVKRKPVFVKVEQLKPGTTGHTLTVKVIEANIVVPVTRKTRPASSLSRPSQPSRIVECLIGDETGCILFTARNDQVDLMKPGATVILRNSRIDMFKGTMRLGVDKWGRIEATGAASFTVKEDNNLSLVEYE | soluble |
| STVLDSLQHTGRGDKVYWFCYGMKCYYFVMDRKTWSGCKQTCQSSSLSLLKIDDEDELKFLQLVVPSDSCWVGLSYDNKKKDWAWIDNRPSKLALNTRKYNIRDGGCMLLSKTRLDNGNCDQVFICICGKRLDKFPH | soluble |
| SVDMQSLDEEDFSVSKSSDADAEFDIVIGNIEDIIMEDEFQHLQQSFMEKYYLEFDDSEENKLSYTPIFNEYIEILEKHLEQQLVERIPGFNMDAFTHSLKQHKDEVSGDILDMLLTFTDFMAFKEMFTDYRAEKEGRGLDLSTGLVVKSLNSSSASPLTPSMASQSI | not soluble |
| SVLEGNPEVGSPRTSDLQHRGNKGSCVLSSPGEDAQPGEEPIKYGELIVLGCCEEGGEETEAQRGEVTGPRAHSCYNGCLASGDKGRRRSRLALSRRSHANGVKPDVMHHISTPLVSKALSNRGQHSISYTLSRSHSVIVEYTHDSDTDMFQIGRSTENMIDFVVTDTSPGGGAAEGPSAQSTISRYACRILCDRRPPYTARIYAAGFDASSNIFLGERAAKWRTPDGLMDGLTTNGVLVMHPAGGFSEDSAPGVWREISVCGNVYTLRDSRSAQQRGKLVGGPLHSPPLSLPGPHKLPIPLPKPGDDLQSFCPREPQQAPYQGIPGPGGS | soluble |
| SVRCYVEIVEKLPERRPDPATIEGCAQLKPNNYLLAWHTPFNEKGSGFGAATKAMCIGLRYWKPERLETLIEVSVECGRMTHNHPTGFLGSLCTALFVSFAAQGKPLVQWGRDMLRAVPLAEEYCRKTIRHTAEYQEHWFYFEAKWQFYLEERKISKDSENKAIFPDNYDAEEREKTYRKWSSEGRGGRRGHDAPMIAYDALLAAGNSWTELCHRAMFHGGESAATGTIAGCLFGLLYGLDLVPKGLYQDLEDKEKLEDLGAALYRLSTEEK | soluble |
| SVRDDLQVVLDTSPPDDTGFSTLERTMLRNILGLHDRRIADVMVHRADIVAIKQDIQLGELLSLFQDAAHSRLVVYNETLDDPVGIVHIRDLVAFMTAKAKVPPATVAKRKKALPAGLDLRAIDLKMPLTETGIIRKLLYVPPSMRAIDLLAQMQAARIHLALVVDEYGGTDGLVSIEDIVEQIVGEID | soluble |
| SVSPLKTRCCSPSSQQQASEAREIEQPSTVWELDFYSRPVYGKDNKRIWELIVVDESFLLCHVESVPNDMINSAELRKRVERLLEQVTVKPKVVKFSRMPMFNMISLALKDLGFEVKPSRRTYRLYHVLRDREANIYSKMPGYRSENTLSTSYLYSTERLPDALRGEKFAFCTADYSFLYELQSSDTIPYCDIFNTGDSILLEKELPGIIVYSERADSLASWTAGAEVSFIKFREEELELVLECGINSHYRLAKIAEDHRLVEEAKTFEQMKWHMKGFHFYAIQSLKETSGTSHIKGLWLLNDFMEQ | soluble |
| SVTGIGSGFSELDEYTAGFQPSDMIIIAARPSAGKTAFALALARNAAVNFNTPVLFFSLEMAEIQLALRLMCAEAYVESQLVRRGQISPEMMNKIINSMDALADAKLFIDDTPGISIMELTAKTRRMKQEHGIGMVVVDYLQLVTPVRDGRSNREQEIAQISRSLKALAKELNIPVIALAQLNRSVEQRSGDRRPQLSDL | not soluble |
| SYHTGTAYGMIDLPRILRSITTFESFGKVKIGILKKGIQAIESLLVARHQMYSAVYMHPTVRIADTMIKRAVIKEIQEKNLDIKDLANMDDIALVSFLRISENYLMERIDRRNLYKNLITYSYFDLNPIEKWIFVNLDEKQILSLESRFYEEFGWDIFIDIYPIPKMEEHNVYIISDEGVKRLDEVSPLAQSLK | not soluble |
